From patent US20080131373A1 (VAN ANDEL RESEARCH INSTITUTE, published 2008)

B1: Fab-paclitaxel conjugate (anti-EGFR Fab conjugated to paclitaxel) (Fab, V domains shown)
VH: EVQLVESGGGLVQPGRSLRLSCAASGFTFDDYAMHWVRQAPGKGLEWVAVIWYDGSNKYYADSVKGRFTISRDNSKNTLYLQMNSLRAEDTAVYYCARTLYSNIDYWGQGTLVTVSS
VL: ALTQPPSVSVAPGKTARITCGGNNIGSKSVHWYQQKPGQAPVLVIYYDSDRPSGIPERFSGSNSGNTATLTISRVEAGDEADYYCQVWDSSSDHPVFGGGTKLTVL
modifications: paclitaxel conjugated to the Fab; chain, site and linker not stated
B2: anti-EGFR Fab fragment (produced by E. coli deposited as ATCC PTA-7830) (Fab, V domains shown)
VH: B1 VH
VL: B1 VL
notes: Human Fab from a naive phage display library (phagemid pComb3X), expressed in E. coli Top 10 F' and purified from the periplasm; also called the Fab of the present invention

Experiments:
[1] = molecular target: human epidermal growth factor receptor (EGFR) on the surface of A431 cells (human, UniProt P00533 25-1210); experiment: cell-based or functional assay
[2] = molecular target: T1, full length EGFR protein from A431 cell lysate (affinity purified, or native in the lysate) (human, UniProt P00533 25-1210); experiment: non-competitive ELISA on immobilized EGFR at 2 and 5 µg/ml coating
T1 construct: mature; 'mature' is chosen as the nearest form; also called intact EGFR protein; native EGFR
Method: The hyperbolic curves were plotted by Graphpad Prism (FIG. 7). […] The affinity was calculated as an association constant (Kaff) as follows: […]
The affinity of the Fab was calculated by non-competitive ELISA as described elsewhere (Raghava G P, et al. J Immunoassay 15:115-28 (1994)). The EGFR proteins were immobilized to an ELISA plate at two different concentrations: 2 μg/ml and 5 μg/ml. After the plate was blocked by 5% milk-PBS, the serially diluted Fab was added to each well. The concentration of Fab and the absorbance optical at 450 nm were plotted in two hyperbolic curves and each Kd was calculated by Graphpad Prism Demo Version.

Binder	IC50 of A431 cell proliferation [1] [nM]	Ka [2] [M⁻¹]	Kd [2] [nM]
B1	0.02	–	–
B2	–	3.25e+07	30.7
